Assays:
Assay in all cases: cell-based or functional assay
[1] = target: Env of HIV isolate 26191-2.48 (clade C) (HIV)
[2] = target: Env of HIV isolate 3326.v4.c3 (clade CD) (HIV)
[3] = target: Env of HIV isolate 57128.vrc15 (clade D) (HIV)
[4] = target: Env of HIV isolate 6322.v4.c1 (clade C) (HIV)
[5] = target: Env of HIV isolate 6785.v5.c14 (clade C) (HIV)
[6] = target: Env of HIV isolate 6838.v1.c35 (clade C) (HIV)
[7] = target: Env of HIV isolate A07412M1.vrc12 (clade D) (HIV)
[8] = target: Env of HIV isolate ADA.DG (clade B) (HIV)
[9] = target: Env of HIV isolate BJOX025000.01.1 (clade AE) (HIV)
[10] = target: Env of HIV isolate BR025.9 (clade C) (HIV)
[11] = target: Env of HIV isolate C1080.c3 (clade AE) (HIV)
[12] = target: Env of HIV isolate CAP210.E8 (clade C) (HIV)
[13] = target: Env of HIV isolate CH038.12 (clade BC) (HIV)
[14] = target: Env of HIV isolate CH117.4 (clade BC) (HIV)
[15] = target: Env of HIV isolate CNE14 (clade B) (HIV)
[16] = target: Env of HIV isolate CNE7 (clade BC) (HIV)
[17] = target: Env of HIV isolate HXB2.DG (clade B) (HIV)
[18] = target: Env of HIV isolate MN.3 (clade B) (HIV)
[19] = target: Env of HIV isolate Q842.d12 (clade A) (HIV)
[20] = target: Env of HIV isolate T278-50 (clade AG) (HIV)
[21] = target: Env of HIV isolate TRJO.58 (clade B) (HIV)
[22] = target: Env of HIV isolate ZM135.10a (clade C) (HIV)
[23] = target: Env of HIV isolate ZM197.7 (clade C) (HIV)
[24] = target: Env of HIV isolate ZM55.28a (clade C) (HIV)
[25] = target: HIV Env of isolate 0013095-2.11 (HIV)
[26] = target: HIV Env of isolate 0077.v1.c16 (HIV)
[27] = target: HIV Env of isolate 0439.v5.c1 (HIV)
[28] = target: HIV Env of isolate 0815.v3.c3 (HIV)
[29] = target: HIV Env of isolate 247-23 (HIV)
[30] = target: HIV Env of isolate 25710-2.43 (HIV)
[31] = target: HIV Env of isolate 3326.v4.c3 (HIV)
[32] = target: HIV Env of isolate 3637.v5.c3 (HIV)
[33] = target: HIV Env of isolate 426c (HIV)
[34] = target: HIV Env of isolate 45_01dG5 (HIV)
[35] = target: HIV Env of isolate 5768.04 (HIV)
[36] = target: HIV Env of isolate 6405.v4.c34 (HIV)
[37] = target: HIV Env of isolate BG1168.01 (HIV)
[38] = target: HIV Env of isolate BL01.DG (HIV)
[39] = target: HIV Env of isolate BX08.16 (HIV)
[40] = target: HIV Env of isolate C3347.c11 (HIV)
[41] = target: HIV Env of isolate CAAN.A2 (HIV)
[42] = target: HIV Env of isolate CAP244.D3 (HIV)
[43] = target: HIV Env of isolate CNE12 (HIV)
[44] = target: HIV Env of isolate CNE30 (HIV)
[45] = target: HIV Env of isolate CNE31 (HIV)
[46] = target: HIV Env of isolate CNE53 (HIV)
[47] = target: HIV Env of isolate CNE59 (HIV)
[48] = target: HIV Env of isolate CNE7 (HIV)
[49] = target: HIV Env of isolate DU172.17 (HIV)
[50] = target: HIV Env of isolate HT593.1 (HIV)
[51] = target: HIV Env of isolate REJO.67 (HIV)
[52] = target: HIV Env of isolate T280-5 (HIV)
[53] = target: HIV Env of isolate TH976.17 (HIV)

PGT121 (antibody)
IC50, pseudovirus neutralization [1]: 0.085 µg/mL
IC50, pseudovirus neutralization [2]: > 50 µg/mL
IC50, pseudovirus neutralization [3]: 1.27 µg/mL
IC50, pseudovirus neutralization [4]: > 50 µg/mL
IC50, pseudovirus neutralization [5]: 0.0503 µg/mL
IC50, pseudovirus neutralization [6]: 0.0613 µg/mL
IC50, pseudovirus neutralization [7]: 0.042 µg/mL
IC50, pseudovirus neutralization [8]: 0.0333 µg/mL
IC50, pseudovirus neutralization [9]: > 50 µg/mL
IC50, pseudovirus neutralization [10]: 9.67 ng/mL
IC50, pseudovirus neutralization [11]: > 50 µg/mL
IC50, pseudovirus neutralization [12]: 4.28 µg/mL
IC50, pseudovirus neutralization [13]: 0.0113 µg/mL
IC50, pseudovirus neutralization [14]: > 50 µg/mL
IC50, pseudovirus neutralization [15]: 0.0103 µg/mL
IC50, pseudovirus neutralization [16]: 0.0477 µg/mL
IC50, pseudovirus neutralization [17]: > 50 µg/mL
IC50, pseudovirus neutralization [18]: > 50 µg/mL
IC50, pseudovirus neutralization [19]: 0.0217 µg/mL
IC50, pseudovirus neutralization [20]: > 50 µg/mL
IC50, pseudovirus neutralization [21]: 1.63 µg/mL
IC50, pseudovirus neutralization [22]: 0.748 µg/mL
IC50, pseudovirus neutralization [23]: > 50 µg/mL
IC50, pseudovirus neutralization [24]: 0.0807 µg/mL
IC80, pseudovirus neutralization [25]: > 50 µg/mL
IC80, pseudovirus neutralization [26]: > 50 µg/mL
IC80 [27]: > 50 µg/mL
IC80 [28]: 0.112 µg/mL
IC80, pseudovirus neutralization [29]: > 50 µg/mL
IC80, pseudovirus neutralization [30]: 0.066 µg/mL
IC80, pseudovirus neutralization [31]: > 50 µg/mL
IC80, pseudovirus neutralization [32]: > 50 µg/mL
IC80, pseudovirus neutralization [33]: > 50 µg/mL
IC80 [34]: 0.0257 µg/mL
IC80 [35]: 0.917 µg/mL
IC80, pseudovirus neutralization [36]: 0.136 µg/mL
IC80 [37]: > 50 µg/mL
IC80 [38]: > 50 µg/mL
IC80 [39]: 0.021 µg/mL
IC80 [40]: > 50 µg/mL
IC80 [41]: 0.0503 µg/mL
IC80, pseudovirus neutralization [42]: > 50 µg/mL
IC80 [43]: 0.0347 µg/mL
IC80, pseudovirus neutralization [44]: 0.296 µg/mL
IC80, pseudovirus neutralization [45]: 2.08 µg/mL
IC80, pseudovirus neutralization [46]: 0.0723 µg/mL
IC80 [47]: > 50 µg/mL
IC80, pseudovirus neutralization [48]: 0.121 µg/mL
IC80, pseudovirus neutralization [49]: 0.41 µg/mL
IC80 [50]: > 50 µg/mL
IC80 [51]: > 50 µg/mL
IC80 [52]: 0.038 µg/mL
IC80 [53]: > 50 µg/mL
